From US20260193326A1
Residue numbers refer to the chain shown, from its start.

B1: A4-C7 (bispecific antibody)
chain: VQLQESGGGLVQPGGSLRLSCAASGSNFSINTMGWYRQAPGKQRELVATVTRGGDTNYADSVKGRFTISRDNAKNTVYLQMNSLRPEDTAVYYCHVDEIRESSWTTSNLWGQGTQVTVSSGGGGSGGGGSGGGGSVQLQESGGGLVQPGGSLRLSCAASGSNFRINTMGWYRQAPGKQRELVAPVTRGGSTNYADSVKGRFTISRDNAKNTVYLQMNSLRPEDTAVYYCHVDEVRESSWTTSNLWGQGTQVTVSSGGGGSGGGGSGGGGSVQLQESGGGLVQPGGSLRLSCAASGSSFTINTMGWYRQAPGKQRELVAAVTRGGSTNYAGSVKGRFTISRDNAKNTIYLQMNSLRPEDTAVYYCHVDEIRQSSWTTSNLWGQGTQVTVSS
B2: A4-C4 (bispecific antibody)
chain: VQLQESGGGLVQAGGSLRLSCAASGSRFSINTMGWYRQAPGKQREFVATVTRGGNTNYAESVKGRFTISRDNAKNTVYLQMNSLRPEDTAVYYCHVDEVRDSSWTTSNIWGQGTQVTVSSGGGGSGGGGSGGGGSVQLQESGGGLVQAGGSLRLSCAASGSRFSINTMGWYRQAPGKQREFVATVTRGGNTNYAESVKGRFTISRDNAKNTVYLQMNSLRPEDTAVYYCHVDEVRDSSWTTSNIWGQGTQVTVSSGGGGSGGGGSGGGGSVQLQESGGGLVQPGGSLRLSCAASGSNFRINTMGWYRQAPGKQRELVATVTRGGSTNYADSVKGRFTISRDNPKDTVYLQMNSLRPEDTAVYYCHVDEVRESSWTTSNLWGQGTQVTVSS
B3: A4-C5 (bispecific antibody)
chain: VQLQESGGGLVQPGGSLRLSCAASGSNFRINTMGWYRQAPGKQRELVATVTRGGSTNYADSVKGRFTISRDNPKNTVYLQMNSLRPEDTAVYYCHVDEVRESSWTTSNLWGQGTQVTVSSGGGGSGGGGSGGGGSVQLQESGGGLVQPGGSLRLSCAASGSNFSINTMGWYRQAPGKQRELVATVTRGGDTNYADSVKGRFTISRDNAKNTVYLQMNSLRPEDTAVYYCHVDEIRESSWTTSNLWGQGTQVTVSSGGGGSGGGGSGGGGSVQLQESGGGLVQPGGSLRLSCAASGSNFRINTMGWYRQAPGKQRELVATVTRGGSTNYADSVKGRFTISRDNPKNTVYLQMNSLRPEDTAVYYCHVDEVRESSWTTSNLWGQGTQVTVSS
B4: A4-C9 (bispecific antibody)
chain: B3 chain with R29S, S55D, P73A, V99I, T184A, V185L, D190S, I234V, T319P, P343A
B5: A4-C8 (bispecific antibody)
chain: B3 chain with T49P, P73A, R299S, T319A, V320L, P343A
B6: A4-C6 (bispecific antibody)
chain: B3 chain with T49P, P73A, T184A, V185L, D190S, I234V, R299S, S325D, P343A, V369I
B7: A4-D1 (VHH)
chain: VQLQESGGGLAQAGGSLRLSCAASGRGFSINTMGWYRQAPGKQRELVAAVTRGGTTNYADSVKGRFTISRDNAKNTVYLQMNSLRPEDTAVYYCHVDEVRQSSWTTSNLWGQGTQVTVSSGGGGSGGGGSGGGGSVQLQESGGGLAQAGGSLRLSCAASGRGFSINTMGWYRQAPGKQRELVAAVTRGGTTNYADSVKGRFTISRDNAKNTVYLQMNSLRPEDTAVYYCHVDEVRQSSWTTSNLWGQGTQVTVSSGGGGSGGGGSGGGGSVQLQESGGGLAQAGGSLRLSCAASGRGFSINTMGWYRQAPGKQRELVAAVTRGGTTNYADSVKGRFTISRDNAKNTVYLQMNSLRPEDTAVYYCHVDEVRQSSWTTSNLWGQGTQVTVSSGGGGSGGGGSGGGGSVQLQESGGGLAQAGGSLRLSCAASGRGFSINTMGWYRQAPGKQRELVAAVTRGGTTNYADSVKGRFTISRDNAKNTVYLQMNSLRPEDTAVYYCHVDEVRQSSWTTSNLWGQGTQVTVSS
B8: A4-D2 (VHH)
chain: B7 chain with A11V, A146V, A281V, A416V
B9: A4-D4 (VHH)
chain: B7 chain with A146V, A148P
B10: A4-D3 (VHH)
chain: B7 chain with A416V, A418P
B11: A4-D5 (protein)
chain: VQLQESGGGLVQPGGSLRLSCVASGSSFSINTMGWYRRAPGKQRELVATVTRDGSTNYANSVKGRFTISRDNAKNTVYLQMNSLRPEDTAVYYCHVDEVRQSSWTTSNLWGQGTQVTVSSGGGGSGGGGSGGGGSVQLQESGGGLVQPGGSLRLSCVASGSSFSINTMGWYRRAPGKQRELVATVTRDGSTNYANSVKGRFTISRDNAKNTVYLQMNSLRPEDTAVYYCHVDEVRQSSWTTSNLWGQGTQVTVSSGGGGSGGGGSGGGGSVQLQESGGGLVQPGGSLRLSCVASGSSFSINTMGWYRQAPGKQRELVATVTRDGSTNYANSVKGRFTISRDNAKNTVYLQMNSLRPEDTAVYYCHVDEVRQSSWTTSNLWGQGTQVTVSSGGGGSGGGGSGGGGSVQLQESGGGLVQPGGSLRLSCVASGSSFSINTMGWYRRAPGKQRELVATVTRDGSTNYANSVKGRFTISRDNAKNTVYLQMNSLRPEDTAVYYCHVDEVRQSSWTTSNLWGQGTQVTVSS
B12: A4-D6 (bispecific antibody)
chain: VQLQESGGGLVQTGGSLRLSCAASGRAFSLNTMGWYRQAPGKWRELVATVTRGGSTNYAGSVKGRFTISRDNAKNTVYLQMNNLRPEDTAVYYCHVDEVRESSWTTSNLWGQGTQVTVSSGGGGSGGGGSGGGGSVQLQESGGGLVQTGGSLRLSCAASGRAFSLNTMGWYRQAPGKWRELVATVTRGGSTNYAGSVKGRFTISRDNAKNTVYLQMNNLRPEDTAVYYCHVDEVRESSWTTSNLWGQGTQVTVSSGGGGSGGGGSGGGGSVQLQESGGGLVQPGGSLRLSCAASGSIFTINSMGWYRQAPGKWRELVATVTRGGNTNYANSVKGRFTISRDNAKNTVYLQMNTLRPEDTAVYYCHLDEVRDSSWTTSNLWGQGTQVTVSSGGGGSGGGGSGGGGSVQLQESGGGLVQPGGSLRLSCAASGSIFSINSMGWYRQAPGKWRELVATVTRGGSTNYANSVKGRFTISRDNAKNTVYLQMNTLRPEDTAVYYCHLDEVRDSSWTTSNLWGQGTQVTVSS

Experiments:
Test in all cases: SPR, AAV on CM5 chip
[1] = target: AAV5 (adeno-associated virus serotype 5)
[2] = target: AAV8 (adeno-associated virus serotype 8)
[3] = target: AAV9 (adeno-associated virus serotype 9)

Binder	Kd [1] [nM]	koff [1] [s⁻¹]	kon [1] [M⁻¹ s⁻¹]	Kd [2] [nM]	koff [2] [s⁻¹]	kon [2] [M⁻¹ s⁻¹]	Kd [3] [nM]	koff [3] [s⁻¹]	kon [3] [M⁻¹ s⁻¹]
B1	0.0732	3.2e-05	437000	3.7	0.00047	127000	0.127	1.75e-05	137000
B2	6.72	0.00121	180000	2.36	0.00025	106000	1.87	0.00031	165000
B3	7.86	0.0013	165000	4.97	0.00091	183000	1.68	0.0002	119000
B4	0.777	5e-05	64300	1.14	0.00013	114000	0.669	0.00013	194000
B5	0.69	0.00013	188000	2.81	0.00037	132000	0.279	5e-05	179000
B6	0.785	0.000139	177000	2.67	0.00044	165000	0.55	2.5e-05	45400
B7	0.0576	2.2e-06	38200	0.0543	1.81e-05	334000	0.0533	3.1e-06	58200
B8	0.0996	5.7e-06	57200	0.0821	3.6e-06	43900	0.304	9e-06	29600
B9	0.657	1.73e-05	26300	0.0802	1.7e-06	21200	0.073	2.1e-06	28800
B10	0.209	3.6e-06	17300	0.0363	1.5e-06	41400	0.0707	3.2e-06	45300
B11	0.318	1.34e-05	42100	0.0836	5e-06	59800	0.117	4.3e-06	36900
B12	0.273	1.18e-05	43300	1.02	1.63e-05	16000	0.155	3.4e-06	21900
